Experimental data taken from the RNAGym collection of RNA variant scans (doi:10.1093/molbev/msab373).

B1: Azoarcus group I ribozyme (parent)
chain: GUGCCUUGCGCCGGGAAACCACGCAAGGGAUGGUGUCAAAUUCGGCGAAACCUAAGCGCCCGCCCGGGCGUAUGGCAACGCCGAGCCAAGCUUCGGCGCCUGCGCCGAUGAAGGUGUAGAGACUAGACGGCACCCACCUAAGGCAAACGCUAUGGUGAAGGCAUAGUCCAGGGAGUGGCGAAAGUCACACAAACCGG

Variants of: B1
Assay: reverse-splicing fitness (ratio to wild type); higher = more active; in vitro selection; Mg2+ level not given
How it was run: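 An in vitro group I ribozyme library with randomized positions was T7-transcribed and gel-purified. In triplicate, 10 pmol RNA in EPPS pH 7.5 was reacted with 50 pmoles of a 30-nt RNA substrate for 1 h at 37 °C across several added MgCl2 levels (1–48 mM), then stopped with EDTA. Products were reverse transcribed from a substrate-complementary primer, PCR-amplified and sequenced (HiSeq 4000). Fitness is a variant's read proportion after selection over that before, normalised to wild type.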

| Variant | reverse-splicing fitness |
| --- | --- |
| C82A A111G A120U C150G C169A U176C | 0.00609 |
| C82A A111G A120U C150G C169A U176A | 0.00738 |
| C82A A111G A120U C150G C169A U176G | 0.0031 |
| C82A A111G A120U C169G U176A | 0.00294 |
| C82A A111G A120U C169G U176C | 0.00341 |
| C82A A111G A120U C169G U176G | 0.00181 |
| C82A A111G A145C C150G U176G | 0.00447 |
| C82A A111G A145C C150G U176A | 0.00908 |
| C82A A111G A145C C150G U176C | 0.0181 |
| C82A A111G A120U A145U C150A C169G | 0.00258 |
| C82A A111G A120U A145U C150A C169A | 0.00209 |
| C82A A111G A120U A145U C150A C169U | 0.00275 |
| C82A A111G A120U A145U C150A C169A U176G | 0.00187 |
| C82A A111G A120U A145U C150A C169A U176A | 0.00224 |
| C82A A111G A120U A145U C150A C169A U176C | 0.00213 |
| C82A A111G A120U A145G C150G U176A | 0.00592 |
| C82A A111G A120U A145G C150G U176G | 0.00403 |
| C82A A111G A120U A145G C150G U176C | 0.00835 |
| C82A A111G A145C C150U C169G U176A | 0.0215 |
| C82A A111G A145C C150U C169G U176G | 0.00676 |
| C82A A111G A145C C150U C169G U176C | 0.0114 |

| Variant | reverse-splicing fitness |
| --- | --- |
| C82A A111G A145C C150G C169U U176G | 0.00568 |
| C82A A111G A145C C150G C169U U176A | 0.00799 |
| C82A A111G A145C C150G C169U U176C | 0.0106 |
| C82A A111G A120U C169A U176A | 0.00268 |
| C82A A111G A120U C169A U176G | 0.00152 |
| C82A A111G A120U C169A U176C | 0.00316 |
| C82A A111G A145C C150U C169U U176A | 0.0126 |
| C82A A111G A145C C150U C169U U176C | 0.00981 |
| C82A A111G A145C C150U C169U U176G | 0.0052 |
| C82A A111G A120U A145G C150A C169A | 0.00676 |
| C82A A111G A120U A145G C150A C169G | 0.00666 |
| C82A A111G A120U A145G C150A C169U | 0.00455 |
| C82A A111G A120U A145C C169A | 0.00203 |
| C82A A111G A120U A145C C169U | 0.00349 |
| C82A A111G A120U A145C C169G | 0.00315 |
| C82A A111G A145G C150G C169G U176A | 0.0112 |
| C82A A111G A120U A145C C150U C169A U176C | 0.00215 |
| C82A A111G A120U A145C C150U C169A U176A | 0.00228 |
| C82A A111G A120U A145C C150U C169A U176G | 0.00215 |
| C82A A111G A145G | 0.419 |
| C82A A111G A145C | 0.41 |

| Variant | reverse-splicing fitness |
| --- | --- |
| C82A A111G A120U A145G C150U U176A | 0.0096 |
| C82A A111G A120U A145G C150U U176C | 0.0133 |
| C82A A111G A120U A145G C150U U176G | 0.00409 |
| C82A A111G A120U C150A | 0.00855 |
| C82A A111G A120U C150G | 0.00849 |
| C82A A111G A120U C150U | 0.0201 |
| C82A A111G A145C C150A C169U U176G | 0.00626 |
| C82A A111G A145C C150A C169U U176C | 0.00831 |
| C82A A111G A145C C150A C169U U176A | 0.0133 |
| C82A A111G A145C C150U C169A U176A | 0.0133 |
| C82A A111G A145C C150U C169A U176C | 0.00698 |
| C82A A111G A145C C150U C169A U176G | 0.00703 |
| C82A A111G A120U A145C C150G C169G U176A | 0.00289 |
| C82A A111G A120U A145C C150G C169G U176C | 0.00289 |
| C82A A111G A120U A145C C150G C169G U176G | 0.00217 |
| C82A A111G A120U A145G C169A U176G | 0.002 |
| C82A A111G A120U A145G C169A U176A | 0.0033 |
| C82A A111G A120U A145G C169A U176C | 0.00333 |
| C82A A111G A120U A145U C150U C169U U176C | 0.00305 |
| C82A A111G A120U A145U C150U C169U U176G | 0.00222 |
| C82A A111G A120U A145U C150U C169U U176A | 0.00273 |

| Variant | reverse-splicing fitness |
| --- | --- |
| C82A A111G A120U C150A C169U U176C | 0.00484 |
| C82A A111G A120U C150A C169U U176G | 0.00235 |
| C82A A111G A120U C150A C169U U176A | 0.00585 |
| C82A A111G A120U A145U C150U C169U | 0.00376 |
| C82A A111G A120U A145U C150U C169A | 0.00329 |
| C82A A111G A120U A145U C150U C169G | 0.00324 |
| C82A A111G A145G C150A C169G | 0.00998 |
| C82A A111G A145G C150A C169U | 0.0109 |
| C82A A111G A145G C150A C169A | 0.0118 |
| C82A A111G A120U A145G C150A C169U U176G | 0.00288 |
| C82A A111G A120U A145G C150A C169U U176A | 0.0049 |
| C82A A111G A120U A145G C150A C169U U176C | 0.00493 |
| C82A A111G A120U C150A C169G U176C | 0.00412 |
| C82A A111G A120U C150A C169G U176G | 0.00222 |
| C82A A111G A120U C150A C169G U176A | 0.00908 |
| C82A A111G A120U A145U C150U U176A | 0.00864 |
| C82A A111G A120U A145U C150U U176C | 0.0108 |
| C82A A111G A120U A145U C150U U176G | 0.00398 |
| C82A A111G A120U A145G C150A C169A U176A | 0.00865 |
| C82A A111G A120U A145G C150A C169A U176C | 0.0046 |
| C82A A111G A120U A145G C150A C169A U176G | 0.00291 |
